Measurements reported in the nanobody polyreactivity screen of Harvey et al. (2022).

Assay: yeast display, Sf9 membrane polyspecificity reagent, FACS + sequencing; frameworks hold sequencing errors
Summary of the method: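 In a synthetic yeast display library (Saccharomyces cerevisiae BJ5465), nanobody expression was induced with galactose for 36–48 hours. FACS gates were set low and high (top ~1%) using anti-HA fluorescence for expression and streptavidin fluorescence for binding of the Sf9 membrane reagent. Each polyreactivity label is drawn from the gate of origin.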

Sequence | polyreactivity (PSR sort gate)
QVQLVESGGGLVQAGGSLRLSCAASGITFYPYAMGWYSQAPGKEWELVADITWSGGSTYYADSVKGRFTISRDNAKNTVYLQMNSLKPEDSAVYYCNRKSYRLRSKVRGQYLLGYDWGQGTQVTVSS | high polyreactivity
QVQLVESGGGLVQAGGSLRLSCAASGITSSYAMGWYRQAPGKERELVAAISRGGSTYYADSVKGRFTISRDTAKNTVYLQMNSLKPEDTAVYYCNKRRYPYGWGQGTQVTVSS | high polyreactivity
QVQLVESGGGLVQAGGSLRLSCAASGGTFFGYAMGWYRQAPGKERELVAAIRWSDGRTYYADSVKGRFTISRDNAKNTVYLQMNSLKPEDTAVYDCNADDARLFDYWGQGTQVTVSS | low polyreactivity
QVQLVESVGGLVQSGGSLRLSCAASGFIFVVYAMGSYRQAPGKERELVATISSGGGTYYADSVKGRFTISRDNAKNTVYLQMNSLKPEDTAVYYCAARRRRLYHFGGNNYWGQGTQVTVSS | high polyreactivity
QVQLQESGGGLVQACGSLRLSCAASGYIFSHQYMGWYRQAPGKERELVASISPGATTNYADSVKGRFTISRDNAKNTVYLQMNSLKPEDTAVYYYAVYQILDRRLSYWGQGTQVTVSC | high polyreactivity
QVQLEESRGGLGQAGGSLRLICAASGRTFAYNPMGWSRQAPGKERELVSAITWSGGSTYYADSVKGRFTISRDNAKNTVYLQMNSLKPEDTAVYYCAREWFQYSPYHRFDYWGQGTQVTVSS | high polyreactivity
QVQLEESGGGLVQAGGSLRLSCAASGRTFTLNAMGWYRQAPGKEREFVAAISNSGVRTYYADSVKGRFTISRDNAKNTVYLQMNSLKPEDTAVYYCARTYQVGDSIDDYWGQGTQVTVSS | low polyreactivity
QVQLVESGGGLVQAGGSLRLSCAASGSIFDIYAMGWYRQAPGKERELVADITISGGSTYYADSVKGRFTISRDNAKNTVYLQMNSLKPEDTAVYYCAADVTVVLGYKYDYWGQGTQVTVSS | low polyreactivity
QVQLVESGGGLVQAGGSLRLSCADSGRTFGGYAMGWYRQAPGKQRELVASITWSGGSTYYADSVKGRFTISRDNAKNNVYLQMNSLKPEDTAVYYCGARTYQSRSTRMDYWGQGTQVTVSS | low polyreactivity
QVQLVESGGGLVQAGGSLRLSCAASGFTFTDNAMGRYRQAPGKERELVAAISEGSGITYYADSVKGRFTISRDNAKNTVYLQMNSLKPEDTAVYYCAADWLSKYDYWGQGTQVTVSS | low polyreactivity
QVQLVESGGGLVQAGGSLRLSCAASGSIFQYNAMGWYREAPGHEWELVAVISRSGSRTYYADSVKGRFTISRDNAKNTVYLQMNSLKPEDTAVYYCAADIWFYTYYGYDYWGQGTQVTVSS | high polyreactivity
QVQLVESGAGLVQAGGSLPLSCAASGSTFPKYAMGWYRQAPGKEREFVSAITSSGGRTFYADSVKGRFTISRDNAKNTVYLQMNSLKPEDTAVYYCAAYYYSWSGAFIYEYWGQGTQETVSS | high polyreactivity
QVQLVESGGGLVQAGGSLRLSCAASGRIFVIYAMGWYRQAPGKERELVASIRSSSTYYADSVKGRFTISRDNAKNTVYLQMNSLKPEDTAVYYCAAVAEYRGYDYWGQGTQVTVSS | low polyreactivity
QVQLVESGGGLVQAGGSLRLSCAASGLTFDRYAKGWYRQAPGKERELVAAITSGGSTYYADSVKGRFTISRDNAKNTVYLQMNSLKPEDTAVYYCAALVFRGRSFTHDYWGQGTQVTVSS | high polyreactivity
QVQHVESGGGLVQAGGSLRLSCAASGGTFYSYAMGWYRQAPGKERELVAAISRRGGSTYYADSVKGRFTISRDNAKNTVYLQLNSLKPEDTAVYYCAAKGPSYGVTRMYYWGQGTQVTVSS | high polyreactivity
QVQLVESGGGLVQAGGILRLSCAASGSTFSSNAMGWYRQAPGKERELVAAISVNGGSTNYADSVKVRFTISRDNAKNTVYLQMNSLKPEDTAVYYCAAEPAKVAFYRGDYWGQGTEVTVSS | low polyreactivity
QVQLVESGGGLVQAGGSLRLSCAASGFTFPVNAMGWYRQAPGKERELVATINSGGSTNYADSVKGRFTISRDNAKNTVYLQMNSLKPEDTAVYYCAAAKRTADYASYWYVENDYWGQGTQVTVSS | low polyreactivity
